In the DeepSol protein solubility set:

Assay: soluble on expression in E. coli; label from the status in PepcDB or PDB records

Sequence	soluble on expression in E. coli
MGSDKIHHHHHHMTIALTGGGTGGHLAIVRCLLESAIKKNIECVYIGSQNGQDKAWFENEVRFKEKFFLSSKGVVNQSKFDKISSLLHTLKLSKDCREIFKKYHIQAVFSVGGYSAAPASFAALFSHLPLFIHEQNSKSGSLNMLLKPFATKFFSAFEKEISPYPVADKFFDNARIRKELKNIIFLGGSQGAQFINELALNLAPKLQEQNIKIIHQCGKNDFEKCKKHYQSLNIQADIFDFSLNLEEKMKNADLAISRAGASTLFELCANTLPTIFIPYPYAAKNHQYFNAKFLQDQALCQIFMQNSINLDEFFKSILKLNLENISTRLQNITQKNGADMLIQKALFDNLTFIR	not soluble
NLYHTPIFSVDREYEWLEKRHDKMLFAFDIPIHLTRRVLLVAGEAHTGGTMEAFTRYLRSIGVGEIKTCVFYKQSICTQHIDFWGMEGENTILMPWQNAQSIRDSLSKAQANQLKKIQRQRDC	not soluble
MTTLNELKHGLEEAWESLAEGWHRLRERAAGALTRFKPGASVPAVPRRQEDFYLASPTWALLAGDVYEDDRKVVIRLEVPGMEKEDFNLELRGDLLIVQGEKRLERETSEGRYRVLQCAYGHFHRVIPLPAEVVADRVQASYRNGVLKIELPKAAARLPRNIEIPVRLEHHHHHH	not soluble
MHQNNGDYRVRGSRPSRSSEHAGPSLHCKKPEGSIRDTLRLSGSFKIYKEPMPELVCDIHLEKLAENIQKYSKIEERKYRENDMHVNDDSHSSDSRPTSDNEVSSSSDRNNDEPSVRRKRKSVENMCHEREHHGDHLQMQVASVIASNLGPMVEIVEKKLLQHKNAEKLLNDGREVFIKTLEEHNQKKEKVERKAKLVAIPPMKARNRRSSRNSLVYIDGPSTSESHSSMVQQVPIIDNIPEVLENETAVCSISSEADHNSRGIKDNQEFAIEISGEVSRTDDICDDFAVFLKKCTVLLTKFIDSYYDFRSTMKLKPEDAIEHWSAERLTKEEHAARVTRFDVAIARATRVQYNIDIKLLTKQSFVFDDDREAAINKRLARIERFVNEQHEEINWFCFSNFSLMDIGETKDRYCLGDFYDKAISMIPKVKDVPSVVQLAKECKMWSAFERILKQYNFEPLKVFEELQKMLEKDYFLPKGKIFCQFLLNVAQLFSYDVVKNEWSCIKQIDGTLFSGVPFDRDGNLLPTSQNSPTECSS	not soluble
MIKTRDQSIFDEMFKRIQSLGFKVYDYKPMTEVPYPFVEMESTDAEYIPNKDDIKGSVELMLSVWGVQKKRKQVSDMASAIFSQALTVESSDVFRWSLNTRQSSIQMLDDTTTVTPLKRAIVTLRFNLR	not soluble
MDLHLTVDLKKTKTLIDLADQAHLIIEQTTKLPKKEAAILFLLIDNQLVALGLAEEKATYKEVSFDHSILLKPTWDTELAYLAQAFLDDAKESGLTLEATPTTVKIPKSAVATVTNYKETVTFILERFGYSLFKKPAPKKARPAKARHKWTKEVSQIPFYIDTRQSKATVFWQKRNEMLIKAGATMMPEAPLNKDGSVGFSARFGEKLRDERKGQFKDFVTTEDIVLKSVNEVGLFLYFAGTNSWLELVDENGKTLNEWTVVE	not soluble
MSEKETPSPVLDVKKEKNEETGIDEEKSSEDDCSKRSKVKSNPSKFSVNSILSPLESLVRVQQQLLKMAASKSGTPGTNAGVPGAFPYGPGRLPGNYFAGPFPGYSGAQPNWYNGNDPRFAAAAALLPCSIDPVRSAINHQFSMSSMSQRRKRRVLFSQAQVYELERRFKQAKYLTAPEREQLANSIRLTPTQVKIWFQNHRYKCKRQEKEKAMSGLGHSEDGSSPPPDNDDDDDKYSIEMDDKDDEEEEESEKPVLKPSGVFGLPYPPNAAAAAAAAAAAFNFPFAAQGPNPAYYMRW	not soluble
MITAEKKKKNKFLPNFDKQSIYSLRFDEMQNWLVEQGQQKFRAKQIFEWLYQKRVDSIDEMTNLSKDLRQLLKDNFTVTTLTTVVKQESKDGTIKFLYELQDGYTIETVLMRHDYGNSVCVTTQVGCRIGCTFCASTLGGLKRNLEAGEIVSQVLTVQKALDATEERVSQIVIMGIGEPFENYDEMMDFLRIVNDDNSLNIGARHITVSTSGIIPRIYDFADEDIQINFAVSLHAAKDEVRSRLMPINRAYNVEKLIEAIQYYQEKTNRRVTFEYGLFGGVNDQLEHARELAHLIKGLNCHVNLIPVNHVPERNYVKTAKNDIFKFEKELKRLGINATIRREQGSDIDAACGQLRAKERQVETRLEHHHHHH	not soluble
GTIPKPTLWAEPDSVITQGSPVTLSCQGSLEAQEYRLYREKKSASWITRIRPELVKNGQFHIPSITWEHTGRYGCQYYSRARWSELSDPLVLVMTGAYPKPTLSAQPSPVVTSGGRVTLQCESQVAFGGFILCKEGEDEHPQCLNSQPHARGSSRAIFSVGPVSPNRRWSHRCYGYDLNSPYVWSSPSDLLELLVPG	soluble
MSETFFHLLGPRTQPNDDSFSMNPLPITCQVNDEPSMAALEQCAHSPQVIALLNELQHQLSQRQPPLGEVLAVDLLNLNADDRHFINTLLGEGEVSVRIQQADDSESEIQEAIFCGLWRVRRRRGEKLLEDKLEAGCAPLALWQAATQNLLPTDSLLPPPIDGLMNGLPLAHELLAHVRNPDAQPHSINLTQLPISEADRLFLSRLCGPGNIQIRTIGYGESYINATGLRHVWHLRCTDTLKGPLLESYEICPIPEVVLAAPEDLVDSAQRLSEVCQWLAEAAPT	not soluble
MEYKSTRHAKYLCNYHFVWIPKYRRKVLTGEVAEYTKEVLRTIAEELGCEVLALEVMPDHIHLFVNCPPRYAPSYLANYFKGKSARLILKKFQELKKSTNGKLWTRSYFVSTSGNVSSETIKKYIEEQWAKENEED	soluble
SAAEEEDEVEWVVESIAGFLRGPDWSIPILDFVEQKCEVFDDEEESKLTYTEIHQEYKELVEKLLEGYLKEIGINEDQFQEACTSPLAKTHTSQAILQPVLAAEDFTIFKAMMVQKNIEMQLQAIRIIQERNGVLPDCLTDGSDVVSDLEHEEMKILREVLRKSKEEYDQEEERKRKKQLSEAKTEEPTVHSSEAAIMNNSQGDGEHFAHPPSEVKMHFANQSIEPLGRKVERSETSSLPQKGLKFPGLEHASIEGPIANLSVLGTEELRQREHYLKQKRDKLMSMRKDMRTKQIQNMEQKGKPTGEVEEMTEKPEMTAEEKQTLLKRRLLAEKLKEEVINK	soluble
MRPEDEALIVACIPSLRRYARGLTGERDRADDLVQDTLERAWSRFSRWQRRGELRAWMFGIMHNQFIDGLRAQKRQADYGAETEIPELPVRATQADRLEVRDLDRHLQRLPADLRAVLLLVAVEEFTYREAAQVLEVPIGTVMSRLSRARERLAALLQVQAEAPAASTVQRIRAT	not soluble
MKWLLLITLSLYSFIVQSAPCGLTNVGEQRGTYILKPLSMKGNLTAEKIENTGNIIECADLQETTNAIKVHFLTQNALRFKVGSRHYIINFPFESDGKKNSASREVIL	soluble
MAHHHHHHMTSAYRIRDAAPADAGIMVRMLMSLASETENVELDEGEVRRGVTTLFEQGSLGRLYVAEEVPKGDTNIKGPSDGNRSSPQIVGVMTVTYEWSDWRGKLFLWIQSVYIIPSKRKQGIFQKFYDHLIRIMAEDPKYCGLRLAVNSKNEKAIRAYKQVGMKREKYQLMGRMKSKY	soluble
AEICLITGTPGSGKTLKMVSMMANDEMFKPDENGIRRKVFTNIKGLKIPHTYIETDAKKLPKSTDEQLSAHDMYEWIKKPENIGSIVIVDEAQDVWPARSAGSKIPENVQWLNTHRHQGIDIFVLTQGPKLLDQNLRTLVRKHYHIASNKMGMRTLLEWKICADDPVKMASSAFSSIYTLDKKVYDLYESAEVHTVNKVKRSK	not soluble
MMLHAQHMPGQPGTPSLVFLHGFSGDCHEWQPVGEQFHGCSRLYIDLPGHGGSAAIPVDGFADVIRLLRATLISYNILKFWLVGYSLGGRVAMMAACQGIPGLCGLVVEGGHPGLQNEQARAERRLSDGRWAERFRHEPLTEVFHDWYQQPVFASLTAQQRQALTALRSQNNGETLAAMLEATSLAVQPDLREALNALAFPFYYLCGERDSKFRALAQEVAATCHVIRNAGHNAHRENPAGVVDSLAQILRL	not soluble
MGSDKIHHHHHHMTTSIDTLSAFVYAADLGSFSAAARRLGKSQSTISEAIANLEIDLGSSLFDRGTRAPTLTPAGRLLLPQARQIMAASQDLRRQAAQLNAGVETRLTIVLSDTFQSRTLESVACRLEERYPLLELECLVGEQEDVLDLILSGRAQLGLVGAMDSYPPDVRHQRQREASELALYAAHRHPLAGMDRIDEQQLDQHRQLRLNTYSDKTPADSGQRQWYAPSYLMLLDMARLGVGWAELPCWLVHSFGGGELKQLDVAGWPKRMPVDLVWAANKPLGAAAGWLLQQLTDGAEQR	not soluble
MVSVNENALPLVERMIERAELLNVEVQELENGTTVIDCGVEAAGGFEAGLLFSEVCMGGLATVELTEFEHDGLCLPAVQVTTDHPAVSTLAAQKAGWQVQVGDYFAMGSGPARALALKPKETYEEIDYEDDADVAILCLESSELPDEDVAEHVADECGVDPENLYLLVAPTASIVGSVQVSARVVETGLYKLLEVLEYDVTRVKYATGTAPIAPVADDDGEAMGRTNDCILYGGTVYLYVEGDDELPEVVEELPSEASEDYGKPFMKIFEEADYDFYKIDPGVFAPARVVVNDLSTGKTYTAGEINVDVLKESFSL	soluble
MVESTTTIYDVARVAGVSMATVSRVVNGNANVKEKTRQKVLEAIAELDYRPNAVARGLASKRTTTVGVILPTITSTYFAAITRGVDDIASMYKYNMILANSDNDVEKEEKVLETFLSKQVDGIVYMGSSLDEKIRTSLKNSRTPVVLVGTIDGDKEIPSVNIDYHLAAYQSTKKLIDSGNKKIAYIMGSLKDVENTERMVGYQEALLEANIEFDENLVFEGNYSYEQGKALAERLLERGATSAVVSHDTVAVGLLSAMMDKGVKVPEDFEIISGANSPITQYTYPTLTSVNQPLYDLGAVAMRLLTKLMLKEDVEQNQLVLDHEIFSRRSTK	soluble
MGSDKIHHHHHHMDAVQLKSFVAVAHEGNLTQAAKRLFLSQPAVSAQIKALEEYVGTPLFRRTGKGMVLTRAGEILLPEAESLLQYKHKLEHFAKTLAGDYSEETSLGIIHPIDSAKLVALTDNIGQTAPKTRLHIQYGMSGEILSRIQHKTLHGGFILGNAAQRGIRSVFLQNLTYALICPQSQYPHLTRSLPQSLQECVWIEMSGVSGSRKHLHQFWRSNRLSPKKQILCDYPQTIIDLVAGGIGVAMVPGNKAEAAAKEGAGVAIIESCRHSMPLNFIYAEEYEDNPHVSLLLECIEKVWGVQAVQPPVVSDN	not soluble
GMDETPIFKIKKLTIAENDRSEYIRYAEKNMHDSIPAEEGTLLIGSGHDDAHGEDNYEIEVFRNKGAEDLHIAGSHADDFVETVNKIATKQKVIDLHPEVITTKAQRALNSYADNFVMRLIKVEVKDADAEKFSHAVKKEMTTSMASEPGMEIMMSGTNIDNPNEWYFIEVYANDEAYDIHVKTPHYKEYIEETDGMVKSRDVKTLVRDTLATQGAIVLD	soluble
MGTRSKRSERCARCRLHIHRCVCPAMPRYSLATRVVLVMHHREYPKTTATGPLALEILPNSELRIHGEPGRSLNLSDLDTPARRILLLYPGDDVPVLDRELLERDGRPVTLVVPDGTWRQASRMGRRLPGLARAEMVRLPPGPPTEWGVRRENHPQGLATFEAIARALGIIESPDVQSGMEHLFRLMVRQTLGARGCAVDRDLEHHHHHH	soluble
MAHHHHHHMFYLFDEKAMSTNIKVKSVKRLVYNRHIKGDEAVLSLDLSYDMSKAFNWNLKQLFLYVLVTYETPEKVKNEVIIQDYIITNKNVAKRTYKNFITKYSLKDYNNGLRNNNINLQVCYKYMPIVGLSRSYEGTKISYKLPAEYFDNLPSNYPLYYPDK	not soluble
